Results on 20 molecules are retold here after patent publication US20210032351A1 (XDCEXPLORER SHANGHAI, published 2021).

Numbering of substitutions follows the chain as printed.

Usually EC50 stands for the midpoint of the concentration-response curve. Lower therefore signals an effect from little substance.

B1: Humanized antibody h75G7C6-3 (antibody, human IgG1, V domains shown)
VH: EVQLVQSGAEVKKPGASVKVSCKASGYTFTDYNMDWVKQAPGQGLEWIGDINPNNADTIYNQKFKGRVTLTVDKSTSTVYMELSSLRSEDTAVYYCARGDYDGYYPVYYAMDYWGQGTTVTVSS
VL: ENVLTQSPATLSLSPGERATLSCRASSSVSSSYLHWYQQKPGQSPRLLIFSTSNLAAGIPARFSGSGSGTDYTLTISSLEPEDFAVYYCQQYSGYPLTFGGGTKVEIK
B2: Humanized antibody h75G7C6-6 (antibody, human IgG1, V domains shown)
VH: B1 VH with E1Q, K38R, I48M, L70M, V72R, K74T
VL: B1 VL with S44A
B3: Humanized antibody h75G7C6-7 (antibody, human IgG1, V domains shown)
VH: B1 VH with E1Q, K38R, I48M, L70M, V72R, K74T
VL: B1 VL
B4: Humanized antibody h75G7C6-4 (antibody, human IgG1, V domains shown)
VH: B1 VH
VL: B1 VL with I59V
B5: Humanized antibody h75G7C6-10 (antibody, human IgG1, V domains shown)
VH: B1 VH with E1Q, K38R, K74T
VL: B1 VL with S44A
notes: also called VH-g1/VL-g1
B6: Humanized antibody h75G7C6-11 (antibody, human IgG1, V domains shown)
VH: B1 VH with E1Q, K38R, K74T
VL: B1 VL
notes: also called VH-g1/VL-g2
B7: Humanized antibody h75G7C6-12 (antibody, human IgG1, V domains shown)
VH: B1 VH with E1Q, K38R, K74T
VL: B1 VL with I59V
notes: also called VH-g1/VL-g3
B8: Humanized antibody h63A10A7-23 (antibody, human IgG1, V domains shown)
VH: QVQLVQSGAEVKKPGASVKVSCKASGYTFISFTMHWVKQRPGQGLEWIGYINPNSGYTKYNQKFKDKATLTRDTSTSTVYMELSSLRSEDTAVYYCTRGGGRGFAYWGQGTLVTVSS
VL: DILMTQSPSSLSASVGDRVTITCHASQDINSNIGWLQQKPGKAPKALIYHGTNLEDGVPSRFSGSGSGADYTLTISSLQPEDFATYYCVQYAQFPFTFGQGTKLEIK
notes: also called VH-g4/VL-g5
B9: Humanized antibody h63A10A7-19 (antibody, human IgG1, V domains shown)
VH: B8 VH with I48M, L70M
VL: B8 VL with A43S, P44F
notes: also called VH-g6/VL-g4
B10: Humanized antibody h63A10A7-37 (antibody, human IgG1, V domains shown)
VH: B8 VH with I48M, L70M
VL: B8 VL with L3Q, A43S, P44F
notes: also called VH-g6/VL-g3
B11: Humanized antibody h63A10A7-25 (antibody, human IgG1, V domains shown)
VH: B8 VH
VL: B8 VL with L36Y, A43S, P44F
notes: also called VH-g4/VL-g7
B12: Humanized antibody h63A10A7-20 (antibody, human IgG1, V domains shown)
VH: B8 VH with K38R, R40A
VL: B8 VL with A43S, P44F
notes: also called VH-g7/VL-g4
B13: Humanized antibody h63A10A7-39 (antibody, human IgG1, V domains shown)
VH: B8 VH with K67R, A68V
VL: B8 VL with L3Q, A43S, P44F
notes: also called VH-g8/VL-g3
B14: Humanized antibody h63A10A7-22 (antibody, human IgG1, V domains shown)
VH: B8 VH
VL: B8 VL with L3Q, A43S, P44F
notes: also called VH-g4/VL-g3
B15: Humanized antibody h63A10A7-38 (antibody, human IgG1, V domains shown)
VH: B8 VH with K38R, R40A
VL: B8 VL with L3Q, A43S, P44F
notes: also called VH-g7/VL-g3
B16: Humanized antibody h63A10A7-24 (antibody, human IgG1, V domains shown)
VH: B8 VH
VL: B8 VL with A43S, P44F, A69T
notes: also called VH-g4/VL-g6
B17: Humanized antibody h63A10A7-21 (antibody, human IgG1, V domains shown)
VH: B8 VH with K67R, A68V
VL: B8 VL with A43S, P44F
notes: also called VH-g8/VL-g4
B18: Humanized antibody h63A10A7-26 (antibody, human IgG1, V domains shown)
VH: B8 VH
VL: B8 VL with L36Y, A43S, P44F, Y71F
notes: also called VH-g4/VL-g8
B19: Humanized antibody h63A10A7-17 (antibody, human IgG1, V domains shown)
VH: B8 VH
VL: B8 VL with A43S, P44F
notes: also called VH-g4/VL-g4
B20: Humanized antibody h63A10A7-18 (antibody, human IgG1, V domains shown)
VH: B8 VH with R72A, T74Q, V79A
VL: B8 VL with A43S, P44F
notes: also called VH-g5/VL-g4

In the first assay the target is human EGFRvIII protein on the cell surface (human) (UniProt P00533). Nature of the assay: FACS on U87MG-EGFRvIII cells.
For the molecule B1, the EC50 was determined as 5.6 nM and the Maximum mean fluorescence intensity was 18600 MFI.

B2 registered an EC50 of 5.96 nM and a Maximum mean fluorescence intensity of 17100 MFI.

B3: the EC50 amounted to 5.74 nM and the Maximum mean fluorescence intensity stood at 17200 MFI.

In turn, B4 displayed an EC50 of 5.57 nM and a Maximum mean fluorescence intensity of 18700 MFI.

The next assay has as its target T1, human EGFRvIII protein on the cell surface (human, UniProt P00533 25-1210).
T1 construct: whole, on cells; the cell line is named under assay; also called hEGFRvIII; U87MG-hEGFRvIII
The assay can be described thus: FACS on U87MG-EGFRvIII cells. Here is the method: The preparation of U87MG-EGFRvIII required for FACS detection is as described in the preparation of the immunogen B in example 1. Normal human primary hepatocytes are purchased from BioreclamationIVT, and A431 tumor cells are purchased from ATCC. The recovered hepatocytes are directly used for FACS detection, and the recovered U87MG-EGFRvIII and A431 cells are subjected to an expanded culture to 90% confluence in a T-75 cell culture flask; the medium is sucked out, and the cells are washed twice with a HBSS buffer (Hanks Balanced Salt Solution) (purchased from Invitrogen), and then treated with an enzyme-free cell dissociation solution (Versene solution: purchased from Life Technology) and collected. The cells are washed twice with the HBSS buffer and are counted, and then the cells are diluted with the HBSS buffer to 2×10⁶ cells/ml, added with 1% goat serum blocking solution, with the percentage being the mass percentage, and incubated on ice for 30 minutes, and then centrifugally washed twice with the HBSS buffer. The collected cells are resuspended to 2×10⁶ cells/mL with an FACS buffer (HBSS+2% FBS, with the percentage being the volume percentage), added to a 96-well FACS reaction plate at 100 μL/well, then added with 100 μL/well of the purified EGFRvIII antibody (samples to be tested) obtained in example 12, and incubated on ice for 2 hours. The plate is centrifugally washed twice with the FACS buffer, added with 100 μL/well of a 1:1000 diluted fluorescence (Alexa 488) labeled secondary antibody (purchased from Invitrogen), and incubated on ice for 1 hour. The plate is centrifugally washed 3 times with the FACS buffer, added with 100 μL/well of a fixing solution [4% (v/v) paraformaldehyde] to resuspend the cells, and centrifugally washed twice with the FACS buffer after 10 minutes. The cells are resuspended in 100 μL of the FACS buffer, and the results are detected and analyzed by FACS (FACS Calibur, purchased from BD). Data analysis is performed by using the software (CellQuest) to obtain the mean fluorescence intensity (MFI) of the cells. Data is further analyzed by using the software (GraphPad Prism5) to perform data fitting and calculate EC50.
In the case of B5, the EC50 was determined as 5.32 nM and the “Maximum mean fluorescence intensity” value amounted to 18000 MFI.

As for B6, it took 5.11 nM to reach a half-maximal effect (EC50) and the “Maximum mean fluorescence intensity” value was 17600 MFI.

With B7, the EC50 stood at 5.2 nM and the “Maximum mean fluorescence intensity” value was determined as 17800 MFI.

Take B8: the EC50 was 4.62 nM and the “Maximum mean fluorescence intensity” value is 20200 MFI.

For B9, the response was half-maximal at 3.27 nM (EC50) and the “Maximum mean fluorescence intensity” value is 21100 MFI.

As for B10, a half-maximal effect (EC50) was put at 5.35 nM and the “Maximum mean fluorescence intensity” value amounted to 10200 MFI.

In the case of B11, the EC50 came to 1.32 nM and the “Maximum mean fluorescence intensity” value was determined as 24700 MFI.

For B12, the EC50 is 1.56 nM and the “Maximum mean fluorescence intensity” value was 22600 MFI.

Regarding B13, a half-maximal effect (EC50) was put at 4.1 nM and the “Maximum mean fluorescence intensity” value worked out at 10700 MFI.

Consider B14, for which a half-maximal response (EC50) required 1.58 nM and the “Maximum mean fluorescence intensity” value came out at 23500 MFI.

On to B15, for which the EC50 worked out at 3.03 nM and the “Maximum mean fluorescence intensity” value amounted to 10700 MFI.

Consider B16, for which the EC50 was found to be 1.83 nM and the “Maximum mean fluorescence intensity” value came to 24200 MFI.

As for B17, it took 2.34 nM to reach a half-maximal effect (EC50) and the “Maximum mean fluorescence intensity” value stood at 23500 MFI.

As for B18, the EC50 was determined as 1.79 nM and the “Maximum mean fluorescence intensity” value came to 23700 MFI.

The next assay deals with T2, human EGFRvIII-hFc protein (human, UniProt P00533 25-645).
T2 construct: extracellular domain; also called immunogen A; hFc-tagged EGFRvIII protein; not shown: human IgG Fc fragment (hFc) of the pCpC vector
The assay can be described thus: ELISA, EGFRvIII-hFc coated. Here is the method:
The purified humanized anti-EGFRvIII antibody obtained in example 12 is reacted with a human EGFRvIII-hFc protein.
The purified immunogen A (EGFRvIII-hFc) obtained in example 1 (for the preparation method, see step (I) in example 1) is diluted with PBS to a final concentration of 1.0 μg/mL, and then added to a 96-well ELISA plate at 100 μl/well. The plate is sealed with a plastic film and incubated at 4° C. overnight. The next day, the plate is washed twice with a plate washing solution [PBS+0.01% (v/v) Tween20], and added with a blocking solution [PBS+0.01% (v/v) Tween20+1% (w/w) BSA] for blocking 2 hours at room temperature. […] The plate is incubated for 2 hours at 37° C., and then washed 3 times with the plate washing solution [PBS+0.01% (v/v) Tween20]. The plate is added with an HRP (horseradish peroxidase) labeled secondary antibody (purchased from Sigma), incubated at 37° C. for 2 hours, and then washed 3 times with the plate washing solution [PBS+0.01% (v/v) Tween20]. The plate is added with 100 μl of TMB substrate/well, incubated for 30 minutes at room temperature, and then added with 100 μl of stopping solution (1.0N HCl)/well. A450 nm value is read using an ELISA plate reader (SpectraMax 384plus, purchased from Molecular Device).
In general terms: ELISA stands for enzyme-linked immunosorbent assay.
Consider B5, for which the midpoint of the response, the EC50, lay at 0.66 nM and the “Maximum OD450 value” worked out at 2.98 OD450.

Consider B6, for which a half-maximal response (EC50) required 0.67 nM and the “Maximum OD450 value” was 2.96 OD450.

In the case of B7, the concentration for a half-maximal effect (EC50) is 0.57 nM and the “Maximum OD450 value” is 2.73 OD450.

As to B19, the EC50 worked out at 0.01 nM and the “Maximum OD450 value” was 3.71 OD450.

With B8, the response was half-maximal at 0.33 nM (EC50) and the “Maximum OD450 value” was determined as 3.47 OD450.

For the molecule B9, the EC50 came out at 0.17 nM and the “Maximum OD450 value” was determined as 3.63 OD450.

As to B10, the response was half-maximal at 0.28 nM (EC50) and the “Maximum OD450 value” is 3.6 OD450.

Regarding B11, a half-maximal effect (EC50) was put at 0.17 nM and the “Maximum OD450 value” stood at 3.61 OD450.

Regarding B12, a half-maximal response (EC50) required 0.18 nM and the “Maximum OD450 value” turned out to be 3.55 OD450.

On to B13, for which the response was half-maximal at 0.24 nM (EC50) and the “Maximum OD450 value” came to 3.6 OD450.

In the case of B14, the midpoint of the response, the EC50, lay at 0.15 nM and the “Maximum OD450 value” came out at 3.57 OD450.

For B20, the EC50 came to 0.01 nM and the “Maximum OD450 value” was 3.71 OD450.

Take B15: a half-maximal effect (EC50) was put at 0.22 nM and the “Maximum OD450 value” stood at 3.7 OD450.

B16: the EC50 came to 0.15 nM and the “Maximum OD450 value” came to 3.67 OD450.

Regarding B17, the half-maximal effective concentration (EC50) came out at 0.17 nM and the “Maximum OD450 value” is 3.6 OD450.

For the molecule B18, the EC50 came out at 0.16 nM and the “Maximum OD450 value” stood at 3.65 OD450.

A further assay concerns the target human EGFRvIII-hFc protein (human) (UniProt P00533). Nature of the assay: ELISA, EGFRvIII-hFc coated.
Molecule B1 returned an EC50 of 0.51 nM and a Maximum OD450 value of 3.44 OD450.

For the molecule B2, the EC50 came to 0.68 nM and the Maximum OD450 value came to 3.2 OD450.

For B3, the EC50 came out at 1.1 nM and the Maximum OD450 value is 2.97 OD450.

B4 registered an EC50 of 0.45 nM and a Maximum OD450 value of 3.37 OD450.
